These sequences were tested on MS2 coat protein (assay: apparent KD of MS2 coat protein; higher = weaker reporter binding). Conditions: Eterna round: R107; input ligand: arginine 13.2 mM.
Outline: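 On-chip transcription from Illumina sequencing clusters produced the designed RNA switches. These were titrated with SNAP-549-labelled MS2 coat protein (twofold steps, 0.7 or 1.5 nM to 3 µM) in 100 mM Tris-HCl pH 7.5, 80 mM KCl, 4 mM MgCl2, with or without constant ligand. The apparent KD given is the per-design median of normalised cluster binding-curve fits.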
In the case of “AACGUAUACAGAAGGAGCGUGAAUUAUAUUACUCAUUGUUAUACAUGAGGAUCACCCAUGUCACAGGUAGGUCGCUGUAUUCGUA [JR_ExcArginiB_Sub018]”, the “apparent KD of MS2 coat protein” value is reported as 76.9 nM. In the case of “UCUUUCUAUAGUGAUACCAGACGUACAUGAGGAUCACCCAUGUUACAUUCUUGGUUAAAAGUCCCUUGGCAGCACGAUUUGUUCG [JR_Nu_ExcTheophyB_Sub027]”, the “apparent KD of MS2 coat protein” value is reported as 9.7 nM. For “ACAUUUAACUGAAGGAGCGUGAUUUCUACAACAUGAGGAUCACCCAUGUUCAUUACUCAUUCACAGGUAGGUCGCAGACUAAUGA [JR_SSArginiB_Sub031]”, the “apparent KD of MS2 coat protein” value was 20.9 nM. “GAGGAAACUCACAUGAGGAUCACCCAUGUACGAGGACCGGUACGGCCGCCACUCGAAACCAUGGGCGGUUGUACAUGGAAACAUG [Design 2]” was tested, and the “apparent KD of MS2 coat protein” value was 21.4 nM. For “AUUAAGAAUAUGUAGACGGCGGAGAAGAGACGAGGACCGGUACGGCCGCCACUCGUGUUAGUUAACAUGAGGAUCACCCAUGUUA [#08 Tryptophan A Same State]”, the “apparent KD of MS2 coat protein” value was 11.9 nM. “AGAGUUAGACAAAAGUCUAGCUCACCAGAAGGAGCGUCCGAAAGGACAGGUAGGUCGCUGGUACACGAGGAUCACCCGUGUUCCU [ArgAS 16 #OpenEnded #AlternativeMS2]” was tested, and the “apparent KD of MS2 coat protein” value was 27.6 nM. “CUAUAAGUACCGGUCCUCAGAUCCUCAUGACGAGGACCGGUACGGCCGCCACUCGAAACAUGAGGAUCACCCAUGUAAUAAUAUC [Brourdmod13]” was tested, and the “apparent KD of MS2 coat protein” value was 18.6 nM. For “GGAUAGGACAGAAGGAGCGACAUGAGGAUCACCCAUGUGGAUCAACGACGAAAGUCGCCAUGUCAGGUAGGUCGCUGUCCUAUCG [ArgXB 8 #MS2Gate #StaticStem #MS2LeftOffAptamer]”, the “apparent KD of MS2 coat protein” value was 139 nM. For “AGCCCGUGAGCGGCCGCCACUGGAGGCUUUGCGCGACAUGAGGAUCACCCAUGUGUGCCCGGCGUUAGGACCGGGCUCACGUGGU [#1 Same State - Tryptophan B Attempt #20 (HarryS)]”, the “apparent KD of MS2 coat protein” value was 43.8 nM. For “CCCAAAUAGAUCUUUGGAAUUUUACUCGAAGGAGCGUCAUAGUAGGCAGGUAGGUCGCGAGACAUGAGGAUCACCCAUGUAGAGA [kinmullin]”, the “apparent KD of MS2 coat protein” value was 18.7 nM. For “AGAUUCGACACGGCCGCCACUUGGAGUGGCUGCUAGCAUGUUACACAUGAGGAUCACCCAUGUCUAAGGACCGGGUGUUGAGUCU [XTryp B #24]”, the “apparent KD of MS2 coat protein” value was 30.7 nM. In the case of “AUGCAUAGCGGAAGGAGCGCAAUAGAAUGACAUGAGGAUCACCCAUGUGUGUGAUGUGGGUUGCAGGUAGGUCGCCGAGUGGUAU [Exclusion - Arginine B (Freestyle 2)]”, the “apparent KD of MS2 coat protein” value is reported as 84 nM. With “UCAUGAGUUUCGGAUACCAGUGAUGUCGAUACAUGAGGAUCACCCAUGUUAGAGGAUGUACACCCUUGGCAGCCGGGUGUGGCGG [ooimullin]” the “apparent KD of MS2 coat protein” value was 33.7 nM. For “UAUAUAUAAAUUGAUACCAGCGAGAAAACAUGAGGAUCACCCAUGUUCGCCCAUGUUAAGCGCCCUUGGCAGCAAUAUUAUUAUU [AstrosExyTheB#3]”, the “apparent KD of MS2 coat protein” value was 18.8 nM. With “UCUCACAUGAGGAUCACCCAUGUUAAGGCCCGAGGACCGGUACGGCCGCCACUCGUUGGAAGCCGGUAACGUACGAAUCUUCCGU [theeternabot_sameState_MS2_Trp_A_18]” the “apparent KD of MS2 coat protein” value was 16.2 nM. “GUUAUAUGAAAACAUAUAACAGUGGGUGAACGAGGACCGGUACGGCCGCCACUCGGACAUGAGGAUCACCCAUGUCCAUGUGAAA [AstrosExyTryA#6]” was tested, and the “apparent KD of MS2 coat protein” value was 15.2 nM. In the case of “AUUUGUACUUAGUGUUGAGUUCUGUCGGAAGGAGCGGAAUAUAAUCCAGGUAGGUCGCCGACAGACAUGAGGAUCACCCAUGUAA [#09 Exclusion - Arginine A]”, the “apparent KD of MS2 coat protein” value is reported as 28.2 nM. With “ACAUGAGGAUCACCCAUGUAUUACCGGGAAGGAGCGCGUAAGGACGCAGGUAGGUCGCUCGGCGUCGUGCUGGAAAGCACGACGA [#1 Same State - Arginine A Attempt #23 (HarryS)]” the “apparent KD of MS2 coat protein” value was 12.9 nM. For “CGCACAUGAGGAUCACCCAUGUGAGGGUACCGAGGACCGGUACGGCCGCCACUCGCAGGACAUGAGGAUCACCCAUGUGCCGCCG [SSTA DOUBLE!!! :-D #6]”, the “apparent KD of MS2 coat protein” value was 24.3 nM. With “UAACAUGAGGAUCACCCAUGUUUGAAGGAACGAGGACCGGUACGGCCGCCACUCGACGAGUGGAUGAGAAGUGGGAUAGUGUGCU [Same State Trp A GF7]” the “apparent KD of MS2 coat protein” value was 15.3 nM. “AGGACUUGCGUUCAAAAUCCCAUGUUGGAAGGAGCGCAUAUAGUUGCAGGUAGGUCGCCGACAUGAGGAUCACCCAUGUCUUUUC [Zasorequer]” was tested, and the “apparent KD of MS2 coat protein” value was 36 nM. “GGUUUCGCGGGCGAUACCAGCUUGAUCGUACUGGCCUGGUACAUGAGGAUCACCCAUGUAAGCCCUUGGCAGCGCGCGCGAGACC [#1 Exclusion - Theophylline B Attempt #4 (HarryS)]” was tested, and the “apparent KD of MS2 coat protein” value was 13.3 nM. In the case of “AUCGGCCAGGGAAGGAGCGUGAAGACAUGAGGAUCACCCAUGUAGAGGCGCCGAAGGCGUUCGCAGGUAGGUCGCCCUGGCUGAU [#1 Same State - Arginine B Attempt #27 (HarryS)]”, the “apparent KD of MS2 coat protein” value is reported as 14.7 nM. With “AUUAACAUGAGGAUCACCCAUGUUUGUCUCCGAGGACCGGUACGGCCGCCACUCGCAGGUUGGAGUCGCUAUAUGGGCGUUCACU [theeternabot_sameState_MS2_Trp_A_42]” the “apparent KD of MS2 coat protein” value was 31.7 nM. “GAGCUGAUGUAGAAAUUUUAUUUAUGAGAUACCAGUACAGAAAUGUACCCUUGGCAGCUCAAUUUUACAUGAGGAUCACCCAUGU [Ex Theophylline A 13]” was tested, and the “apparent KD of MS2 coat protein” value was 16.8 nM. In the case of “AUUAAUAGUUGUGAUACCAGACUUACAUGAGGAUCACCCAUGUUACUUAAGUGUUUUGAUGUCCCUUGGCAGCACUGUUUAGUUA [JR_SSTheophyB_Sub016]”, the “apparent KD of MS2 coat protein” value is reported as 24.3 nM. With “GGGUGCGGGCGAAGGAGCGUGAAGACAUGAGGAUCACCCAUGUAGAGGCCCGAACAGGGUUCGCAGGUAGGUCGCGCGCGUGCCC [#1 Same State - Arginine B Attempt #5 (HarryS)]” the “apparent KD of MS2 coat protein” value was 11.8 nM. “CGAACAAAACUAAAUAAACAACUGGGUGAUACCAGUACAUGUGCGUACCCUUGGCAGCAUCCGGCCACAUGAGGAUCACCCAUGU [Ridiansoer]” was tested, and the “apparent KD of MS2 coat protein” value was 35.4 nM. “UCCUGCAGAGCGGCCGCCACUGUAUUGCGUGAGGAUGACCCAACAUGAGGAUCACCCAUGUUGUUUAGGACCGGGCUUGCCACCA [lkpmullin]” was tested, and the “apparent KD of MS2 coat protein” value was 16.7 nM. With “CUUGACAUGAGGAUCACCCAUGUUGGUAAACGAGGACCGGUACGGCCGCCACUCGGUUACGUGUAGUACCGGUAAGAUCCAGGGU [Default title]” the “apparent KD of MS2 coat protein” value was 24.8 nM. With “GGGAAUGAACGUGAUACCAGAGAUCCGGUCUCCGUCACUCUACAUGAGGAUCACCCAUGUCUCCCUUGGCAGCACCGUCAUCGGG [Exclusion Theophylline B GF 29]” the “apparent KD of MS2 coat protein” value was 32.4 nM. In the case of “ACAUGAGGAUCACCCAUGUUCCUCGCCGAUACCAGUGAAGAAGAACGCCCUUGGCAGCGGAAAGAAUAUAUUGGAGAUGAUAUAU [6.U]”, the “apparent KD of MS2 coat protein” value is reported as 111 nM. For “AUUUACAUGGUCAUAUAUAUAUCGUCAGAUACCAGACUAGAUAUAGUCCCUUGGCAGCUGUUACAUGAGGAUCACCCAUGUUAUA [JR_Nu_ExcTheophyA_Sub019]”, the “apparent KD of MS2 coat protein” value was 41.8 nM. With “GGACUAACCAGAAGGAGCGACACGCAGAAACUGCAAAAUCCUCCACACGAGGAUCACCCGUGUCAGGUAGGUCGCUGGUUAGUCG [ArgXB 16 #Zipper #MS2Left #StaticStem #Blueprint]” the “apparent KD of MS2 coat protein” value was 44.6 nM. With “AAAGGAAGGUAAAAUAAAACUACAUGUGAAGGAGCGCGCGAAAGCGCAGGUAGGUCGCACAUGAGGAUCACCCAUGUCCUUCCAA [MAT - Exclusion Arginine A - Mod of Eli - D4]” the “apparent KD of MS2 coat protein” value was 112 nM. With “UGUAUGUGAUCUGAUACCAGAGUUGAUAACCUGAGGAUCACCCUGGUAAAGGCGAAAGCCCUCCCUUGGCAGCAGAUCGCAUACU” the “apparent KD of MS2 coat protein” value was 121 nM. With “GUAAAUUAUAGAAGGAGCGUCGAAAAUGGGUAAACAUGAGGAUCACCCAUGUAAAGGGAACGACAGGUAGGUCGCUAUAAUUUAC [AstromonsSSArgB#15]” the “apparent KD of MS2 coat protein” value was 116 nM.

— the supplement of paper PMC9170038
